Data reported in publication doi:10.1101/2022.11.23.517371.

Molecular target: nicotinate-nucleotide pyrophosphorylase (NMnPP) (Saccharomyces cerevisiae S288c) (UniProt P43619)
Assay: negative-stain TEM

nicotinate-nucleotide pyrophosphorylase (NMnPP) (from UniProt P43619 1-295) (enzyme)
stoichiometry N: 6
